The results in this text go back to a protein production outcome set (Wang et al. 2014).

The data set can be described thus: label from the status in PepcDB records.
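Further: failed if final PepcDB status was selected cloned or expressed and not failed if soluble or beyond.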

Regarding “MIMTSDIKLLDYLRVRRSTPALQLSEPGPSKGEIEEILRLAVRVPDHGKLAPWRFVVYRGEERVRLSEAALRIALEKNPDLDLQQQEAERTRFTRAPVVIAVISTAKPHFKIPEWEQVMSAGAVCLNVIFAANASGFAANWLTEWLAFDPAFLAEIGVSAEEKVAGYIHIGSTTFPPVERPRPELADVVTWVGDV”, the protein production result is on record as “not failed”.
“MINDIILLLFVKIKRRLMMDKLFKLKENGTDVRTEVLAGLTTFFAMSYILFVNPQILSQTGMPAQGVFLATIIGAVAGTLMMAFYANLPYAQAPGMGLNAFFTFTVVFGLGYSWQEALAMVFICGIISLIITLTNVRKMIIESIPNALRSAISAGIGVFLAYVGIKNAGLLKFTIDPGNYTVVGEGADKAQATIAANSSAVPGLVSFNNPAVLVALAGLAITIFFVIKGIKGGIILSILTTTVLAIAVGLVDLSSIDFANNHVGAAFEDLKTIFGAALGSEGLGALVSDTARLPETLMAILAFSLTDIFDTIGTLIGTGEKVGIVATNGENHQSAKLDKALYSDLIGTTVGAIAGTSNVTTYVESAAGIGAGGRTGLTALVVAICFAISSFFSPLLAIVPTAATAPILIIVGIMMLGSLKNIHWDDMSEAVPAFFTSIFMGFSYSITQGIAVGFLTYTLTKLVKGQVKDVHVMIWILDALFILNYISMAL”: the protein production result is recorded as “failed”.
The result for “MINFFDLFLSDFLTSLRLFCKVWDEQTTLQALLEHVRAIPGHCQKKILTKLLVTDIWDKEDTKLLAALKHIDVRPTRVACRPSLQVLGLYNDVVTVFQTHGMGWYREIDEDVYPKLVKEFIATCRLTYANPENPKASQGTLTFFLNKKHYNKTMFEIYDMYGFTKGEAVEFSKLSPTHITSLLSTTNPVFEHNEQYLVPDPSKTVPRRRRTAEAQPTDEHVISNDEIYEDYAYPTSLAHAQPYLLLPEDPTPYRVSPPPAGDDISQQMAWMIALTRKNNSMMHKMWRAISRIRPCVCTRRGGVDDANRENQSKTIEDRHAERLVPAAGPSGASTSQPPPEHSQAVA” reads “not failed”; that for “MINHKIFPTADAVVKSLADDMLAYSQQGQPVHISLSGGSTPKMLFKLLASQPYANDIQWKNLHFWWGDERCVAPDDAESNYGEANALLFSKINMPAQNIHRILGENEPQAEAERFAQAMAHVIPTENGTPVFDWILLGVGADGHTASLFPGQTDYADANLSVVASHPESGQLRVSKTAKVLQAAKRISYLVLGAGKAEIVEQIHTTPAEQLPYPAAKIHSTSGVTEWYLDSDAAAKIA”, “not failed”.
For “MINKPNQFVNHLSALKKHFASYKELREAFNDYHKHNGDELTTFFLHQFDKVMELVKQKDFKTAQSRCEEELAAPYLPKPLVSFFQSLLQLVNHDLLEQQNAALASLPAAKIIELVLQDYPNKLNMIHYLLPKTKAFVKPHLLQRLQFVLTDSELLELKRFSFFQALNQIPGFQGEQVEYFNSKLKQKFTLTLGEFEIAQQPDAKAYFEQLITQIQQLFLKEPVNAEFANEIIDAFLVSYFPLHPPVPLAQLAAKIYEYVSQIVLNEAVNLKDELIKLIVHTLYEQLDRPVGDEN”, the protein production entry is given as “not failed”.
Regarding “MINKTLLQKRFNGAAVSYDRYANVQKKMAHSLLSILKERYSETASIRILELGCGTGYVTEQLSKLFPKSHITAVDFAESMIAIAQTRQNVKNVTFHCEDIERLRLEESYDVIISNATFQWLNNLQQVLRNLFQHLSIDGILLFSTFGHETFQELHASFQRAKEERNIKNETSIGQRFYSKDQLLHICKIETGDVHVSETCYIESFTEVKEFLHSIRKVGATNSNEGSYCQSPSLFRAMLRIYERDFTGNEGIMATYHALFIHITKEGKR”, the protein production entry was “failed”.
The result for “MINLWPLLLPAAAWSGWWLANRSNSNKDAHVHNRLSREYVVGLNYLLNEQSDKAVDVFIKLLEVDSDTVETHLALGSLFRRRGEVDRAIRIHQNLIARPQLSIQQRKEALMALGQDYMSAGVFDRAERIFLEVVELGGSRDTSSLQGLLAIYQQEKAWEKALDIIKKLEISTGASFHNQAAHYYCEMASQALKINAMDRAIYCIKQAMNVDPESVRASLMNATIEIKEGRYKQAIRSLKRVPQQDAEFLTEIIEPLVLCHKELDSMPDCIHYLEQTLEKHPRASVIFVIADYLRQNKGMDIAIDFVADNLSKHPSIRGLNRLIYWHLESAHGKVREKLQMLYDITSKFLDNKPIYRCGHCGFGGKHLHWHCPSCKQWGRMKPIHGLEGD” reads “failed”; that for “MINMYIPQFNPRIRKDQKSGLFFFEIRDNEGKTVSYQSGFNTKREAENTALEIQQKLRQGYTLDRYTSLYDWFQTWYDLKIRPKKKLSQETKKNYQIYGETLKRLFGDKPIIDIKSSQYQRIMNVYGETVGYDYLSRINSVIRKIIKLAQSDKIVIDDFTSTVELFAGKDGQKVNEKYIHSVEDYHRLISYLENNLNYEDSVVNHVIYVIAKTGMRYGEIIGLTNNDTSLDEHYLHTYKRYNTSTWKWTNAKNESSKRYIPIDDKIVAALSNMIKERERINSLLRIKNKEEFLFFHYGLEHGIPSVATVNKALKKILKKLDIEPIITTKGLRHTYGSYLLHNNIDMGVVARILGHKDIQMLIQVYGHTLTEKIDKEFKEVEQIMNRI”, “failed”; that for “MINSVITQMAEELRKASKVALFSHVSPDGDCIGSMLGIGLALEALGKEVAMFNPDPIPRNLSFLPGVDKITQSMPDPLPETLLFVDCADLQRVQLQREDLPADAVILNLDHHISNQNFGRINWVDSQAAASGELAYALVRRLNVELTQEIAANFYTALLTDTGSFKYANTTAKTHQIAGELMETGISLGDIHHFVFDQTPMVKLELLRRGLNQLQFFAEGQLGMMTLRKQDFEESGAEESLSEGLIDHARTVEGVEVAVLLKEVKPDVVRVSLRSNRWFDVNRIADGFGGGGHQRAAGCTLHLSLEEAKQKVRQIIEEELKLGRSHLEHHHHHH”, “not failed”.
In the case of “MIPPGAQTPCPAGTRGDEATQLRRFVASVPNRISIGAARGAAPLSALLGLLLLGGAWTLRDHPGPGHEAAALCLLAAAALLMCLACLQRNARSAPFLVLGQGRLRARSLSAPLDLLEVADLRLEDGVWFSAIVLELHGKALPAPSTRPLDPFAARAVSECRDGPRVRLLSPGWRLNGRNLSLLEAAEVIDLYLDIARAQARLRQLGEIPPSASSSLPTPRIFP”, the protein production result is reported as “failed”.
The result for “MIPPLQLSPLALVALLSLAAWAVVLLTRRRFWRCDQRLGQNTMAPGAAPAVVAVIPARDEAHTIGQTVRSLLNQSYPGRLVVVVVDDSSSDGTADAARAGAASVYDGPSRLIVVPGKPLEAGWSGKLWAVHQGLEVAAQAVPEARYVLLTDADIEHIPGNIARLVGKCERDGLVMASLMVKLRCESAWEHLLIPAFIFFFQKLYPFPLVNDPDRRVAGAAGGCILARRETLDAIGGVAAVRGALIDDCALAALLKEKGPIWLGLAGRTRSLRPNDELGDVWRMVARTAYVQLHHSPLRLIGAVIGMTLLYLVPPVSLIVGILSADFPAAVAGLVGWIGLAIIYRPTLHLYRRPPMAGLALPLAALLYTLMTIDSARRHYVGRGGEWKGRTYSGDASAGADPGPRSPAELAAHVEAITKASGTSFYGAMRILPRERRLAMYAIYAFCRVVDDIADGTAPEAEKRAELARWRDEIEALYARGGKGPEHPVARALDGPIRRFALPREDFLAVIEGMELDAGPRVRIRDITELEQYCDWVACAVGRLSNRIFGADPALSDDVARHTGLALQLTNILRDVVEDAERDRLYLPLSRLRAHGLKTTKDIDAVLVHPATAKVCAELASKAAAEFAEADRAQAACDRKTMRPAIIMKEVYRRIHAALMVRGWARLGEPVKVSRLTKLGIALRHGWL” reads “failed”.
The result for “MIPPSIRLTLRNLIVNTDPGTLLFLLGLPSFYLIVLGLMFQSIIPNVPFAGKDISYAQFLSPGVVAMQPFIAGSIGGSMLWSDRRWGMFEQLIVGPFHRIDYLLGIIYVSIIFSVGGAFLMFLVSYAITGFLVSYDINLLMIAVVLIVSSILFTSIFLVLSVFIRTIQTYNTVTMFVFFILDFASSAFYPINSRTPLGLRIVSYMNPLTYIVDAVRNMMFYKIGMQDYISLLIVVVLSGFFFLIALVSYGRARV” reads “failed”; that for “MIPPSYCFYYFIHSGGLLSLKIRCENFIRSIADLIRKAEIELPDDVVNALRKAESIEENQVAKSQLQAILKNIEIAKNHAVPMCQDTGIMIFFAELGTEFQPGFDLEAAVRDAVVLATREIPLRPNAVDPLNRNNSGNNTGSGIPDIHWKLVPGKQLKITVSPKGAGSENMSALRMFNPTEAGSIKNFVLETVINAGGMPCPPLTLGIGIGGSFDKAARLAKEALLEPLDAPMNELEQEVLEAVNALGIGCMGLGGSTTALAVHIKTAHCHTASLPVAINIQCWANRHASIVFGEEE”, “failed”.
For the sequence “MIPSSSPMESRHRLSFSNEKTSRRRFQRIEKGVKFNTLKLVLICIMLGALFTIYRFRYPPLQIPEIPTSFGLTTDPRYVATAEINWNHMSNLVEKHVFGRSEYQGIGLINLNDNEIDRFKEVTKSDCDHVALHLDYAAKNITWESLYPEWIDEVEEFEVPTCPSLPLIQIPGKPRIDLVIAKLPCDKSGKWSRDVARLHLQLAAARVAASSKGLHNVHVILVSDCFPIPNLFTGQELVARQGNIWLYKPNLHQLRQKLQLPVGSCELSVPLQAKDNFYSAGAKKEAYATILHSAQFYVCGAIAAAQSIRMSGSTRDLVILVDETISEYHKSGLVAAGWKIQMFQRIRNPNAVPNAYNEWNYSKFRLWQLTEYSKIIFIDADMLILRNIDFLFEFPEISATGNNATLFNSGLMVVEPSNSTFQLLMDNINEVVSYNGGDQGYLNEIFTWWHRIPKHMNFLKHFWEGDEPEIKKMKTSLFGADPPILYVLHYLGYNKPWLCFRDYDCNWNVDIFQEFASDEAHKTWWRVHDAMPENLHKFCLLRSKQKAQLEWDRRQAEKGNYKDGHWKIKIKDKRLKTCFEDFCFWESMLWHWGETNSTNNSSTTTTSSPPHKTALPSL”, the protein production result is on record as “failed”.
As for “MIPYAFIILLVVFFSVFDFSNLNVFKKKILLFFLSFILILFVGTRFETGDDWGEYTKVFDKIPLVSDLWNDNGMFLLFRMEPGYILFNSVIKSFGGSINEVFLLSSIVVISLFFVFQKRYTLLPFLAVLLYMRYGYMQFNMMFVRQGIAISIFFYSLKYIEDKKIIKYLLINILSSLFHSSLLIVLPLYFVINRRYSNIFLCTVVFISVLLSFFDWMGAILSFFPPFIQSSLTSYTESDVWGGMTGKINIAVAEKFILLLMCLRLREKLEQKNISFNLVFNLFVLSIICYYAFFQTYVFQQRTVLIFQLSTIFIISQLFLFFSVKNRMMVLFILNLMVIYFFFRYINIGKDVYLPYRSWLI”, the protein production result was “failed”.
The result for “MIQAFLEKLPHLDVYGNPQYFFYLILAVLPIYIGLFFKKRFALYEIIFSLSFIVMMLTGSTFNQLKSLLAYVVGQSLLVFIYKAYRKRFNHTLVFYVTVCLSIFPLFLVKLIPAISEDGHQSLFGFLGISYLTFRAVAMIIEMRDGVLKEFTLWEFLRFLLFFPTFSSGPIDRFKRFNEDYINIPDRNELLDMLGQAIHYLMLGFLYKFILAYIFGSLIMPPLKELALEQGGVFNWPTLGVMYAFGFDLFFDFAGYTMFALAISNLMGIKSPINFDKPFKSRDLKEFWNRWHMSLSFWFRDFVFMRLVKLLVKNKVFKNRNVTSSVAYIINMLLMGFWHGLTWYYIAYGLFHGIGLVINDAWVRKKKNINKERRLAKKPLLPENKWTYALGVFITFNVVMFSFLIFSGFLDLLWFPQPHNK” reads “failed”.
The result for “MIQARSRRPLSCSLRSSSQNPIATTFLTGGKMDRIVRQILVKLLGGERSVYELIYYQDASLREFFELLNSLRDEGLIEVESGKVRITEKGREVAEKERLKFCGDVECECCEGTGLSINPYFKEILQKYSEIAKDRPETIEVYDQGFISLEGVIRRVEFVYDRGDLNGRIFVVGDDDLFGIAASLTGMPEKVAVVDIDERLINFINRVAEEYSLNVEAFVYDVQQAFPDELKRKFDVFVTDPVETIPGLKLFLSRGVSTLKGVGGAGYFGITTLEASRRKWYEIQRMIHDMGFIITDLRRRFNVYPEDEKNFFRFQEKLPIVRHLQAKVDFNWYNSTLFRIEAVKEPKPIVEGEMIIDEKVYKDDESWATPY” reads “failed”.
